According to article PMC5342420, “CD109 is identified as a potential nasopharyngeal carcinoma biomarker using aptamer selected by cell-SELEX”:

T1: CD109 (endogenous, 5-8F cells) (UniProt Q6YHK3)
T1 sequence: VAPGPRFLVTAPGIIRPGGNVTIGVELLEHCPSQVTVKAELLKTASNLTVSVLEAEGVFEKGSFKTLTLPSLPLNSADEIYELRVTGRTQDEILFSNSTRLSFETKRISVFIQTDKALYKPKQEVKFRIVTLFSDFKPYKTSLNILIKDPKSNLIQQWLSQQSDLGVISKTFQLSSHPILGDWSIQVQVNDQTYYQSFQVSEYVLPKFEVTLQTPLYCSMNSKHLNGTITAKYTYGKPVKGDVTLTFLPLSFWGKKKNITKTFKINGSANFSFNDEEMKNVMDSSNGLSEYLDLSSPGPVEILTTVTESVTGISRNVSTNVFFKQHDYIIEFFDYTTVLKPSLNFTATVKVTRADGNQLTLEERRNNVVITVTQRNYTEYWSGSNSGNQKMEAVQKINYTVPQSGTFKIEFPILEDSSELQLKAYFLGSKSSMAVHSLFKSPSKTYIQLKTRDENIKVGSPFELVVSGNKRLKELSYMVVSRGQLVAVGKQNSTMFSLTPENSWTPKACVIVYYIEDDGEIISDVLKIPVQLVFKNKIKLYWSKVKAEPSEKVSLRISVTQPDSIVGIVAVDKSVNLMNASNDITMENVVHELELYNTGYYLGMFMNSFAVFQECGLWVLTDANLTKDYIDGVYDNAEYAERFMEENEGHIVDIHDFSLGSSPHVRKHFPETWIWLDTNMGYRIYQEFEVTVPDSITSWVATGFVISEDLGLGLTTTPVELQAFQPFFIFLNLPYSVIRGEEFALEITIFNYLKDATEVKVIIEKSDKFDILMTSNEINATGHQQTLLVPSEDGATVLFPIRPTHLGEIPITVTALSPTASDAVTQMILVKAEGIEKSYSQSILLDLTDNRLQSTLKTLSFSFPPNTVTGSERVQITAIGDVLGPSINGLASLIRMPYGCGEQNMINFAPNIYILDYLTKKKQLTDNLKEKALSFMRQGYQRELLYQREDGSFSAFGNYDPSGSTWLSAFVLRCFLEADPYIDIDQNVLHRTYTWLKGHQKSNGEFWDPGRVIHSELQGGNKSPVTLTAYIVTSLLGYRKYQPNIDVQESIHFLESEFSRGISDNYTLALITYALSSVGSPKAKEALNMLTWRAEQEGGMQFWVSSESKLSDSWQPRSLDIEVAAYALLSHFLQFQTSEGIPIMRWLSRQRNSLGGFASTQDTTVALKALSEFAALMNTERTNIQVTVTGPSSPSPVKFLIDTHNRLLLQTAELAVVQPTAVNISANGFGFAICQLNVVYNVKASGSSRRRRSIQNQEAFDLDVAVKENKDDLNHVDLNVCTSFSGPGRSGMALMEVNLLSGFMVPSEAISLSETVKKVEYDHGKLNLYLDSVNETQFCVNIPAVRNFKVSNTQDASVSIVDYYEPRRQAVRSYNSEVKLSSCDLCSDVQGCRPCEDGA

B1: S3 (FAM-labeled) (ssDNA)
DNA: ATCCAGAGTGACGCAGCATCTGAGAATAGTGGTTTGCTGTATGGTGGGCGTTGAAAGAGGGGTGGACACGGTGGCTTAGT

Experiments:
[1] = target: T1, CD109 (endogenous, 5-8F cells); assay: flow cytometry; details: whole 5-8F cells, on ice, 10% FBS, library background subtracted, Cells: D-PBS (Ca/Mg-free) + 4.5 g/L glucose, 5 mM MgCl2, 0.1 mg/mL yeast tRNA, 1 mg/mL BSA, on ice 0.5 h, EMSA: binding buffer, 4 C, 5% native PAGE in …
CD109 (recombinant) = CD109 (recombinant) (Homo sapiens, UniProt Q6YHK3 22-1420); assay: EMSA; 4 C; Cells: D-PBS (Ca/Mg-free) + 4.5 g/L glucose, 5 mM MgCl2, 0.1 mg/mL yeast tRNA, 1 mg/mL BSA, 10% FBS, on ice 0.5 h; EMSA: binding buffer, 4 C, 5% native PAGE in; details: protein: commercial; label: FAM

Molecule	Kd [1]	binding result (CD109 (recombinant))
ATCCAGAGTGACGCAGCATCTGAGAATAGTGGTTTGCTGTATGGTGGGCGTTGAAAGAGGGGTGGACACGGTGGCTTAGT [S3 (FITC-labeled)]	11.9 nM	–
B1	–	binds
